Measurements from patent US20140363495A1.

Key:
[1] = biological target: HLA-A2 molecules on T2A2 cells (human); assay: flow cytometry, upregulation of HLA-A2 on T2A2 cells, peptide 25 µg/mL, negative control; settings: remark: other sources report otherwise
[2] = biological target: HLA-A2 molecules on T2A2 cells (human); assay: flow cytometry, upregulation of HLA-A2 on T2A2 cells, peptide 12.5 µg/mL, negative control; settings: remark: other sources report otherwise

T2A2 Binding (MFI) [1]: 83.8 MFI
T2 Binding (MFI) [2]: 109 MFI
Binder: HLFGYSWYK [CAP-7]
